pKd: −log10 of the molar value.
Experiments:
[1] = target: EGFR (high-affinity site) (Homo sapiens) (UniProt P00533); conditions: cited from earlier work
[2] = target: EGFR (low-affinity site) (Homo sapiens) (UniProt P00533); conditions: cited from earlier work
[3] = target: Drosophila EGFR extracellular region lacking domain V (s-dEGFRΔV) (Drosophila melanogaster) (UniProt P04412)
[4] = target: dimerization-defective s-dEGFR variant (s-dEGFR^dim-arm), biotinylated (Drosophila melanogaster) (UniProt P04412); assay: fluorescent ligand binding assay on plates
[5] = target: Drosophila EGFR extracellular region (s-dEGFR) with C-terminal His tag and AviTag, biotinylated (Drosophila melanogaster) (UniProt P04412); assay: fluorescent ligand binding assay on plates

In the case of EGF (from UniProt P01133), the pKd [1] is listed as 9.52 and the pKd [2] is listed as 8.70.
Work on “EGF-like domain of Spitz (SpitzEGF, residues 48-105) (ligand)” yielded a pKd [3] of 6.43.
“SpitzEGF labeled with Alexa Fluor-488 (ligand)” gave a pKd [4] of 6.04, a KD of the high-affinity site (fit with two independent classes of site) [5] of 4.7 nM and a pKd [5] of 7.31.
With “Spitz_(EGFΔC), variant of SpitzEGF with a C-terminal truncation of six amino acids (ligand)” the pKd [3] was 5.36.
